# Data as given in article PMC10352601 (Blood, 2023).
# T1: ET3i, a bioengineered human/porcine FVIII chimera (Homo sapiens / Sus scrofa chimera (A1, …, chimera))
# T1 chain: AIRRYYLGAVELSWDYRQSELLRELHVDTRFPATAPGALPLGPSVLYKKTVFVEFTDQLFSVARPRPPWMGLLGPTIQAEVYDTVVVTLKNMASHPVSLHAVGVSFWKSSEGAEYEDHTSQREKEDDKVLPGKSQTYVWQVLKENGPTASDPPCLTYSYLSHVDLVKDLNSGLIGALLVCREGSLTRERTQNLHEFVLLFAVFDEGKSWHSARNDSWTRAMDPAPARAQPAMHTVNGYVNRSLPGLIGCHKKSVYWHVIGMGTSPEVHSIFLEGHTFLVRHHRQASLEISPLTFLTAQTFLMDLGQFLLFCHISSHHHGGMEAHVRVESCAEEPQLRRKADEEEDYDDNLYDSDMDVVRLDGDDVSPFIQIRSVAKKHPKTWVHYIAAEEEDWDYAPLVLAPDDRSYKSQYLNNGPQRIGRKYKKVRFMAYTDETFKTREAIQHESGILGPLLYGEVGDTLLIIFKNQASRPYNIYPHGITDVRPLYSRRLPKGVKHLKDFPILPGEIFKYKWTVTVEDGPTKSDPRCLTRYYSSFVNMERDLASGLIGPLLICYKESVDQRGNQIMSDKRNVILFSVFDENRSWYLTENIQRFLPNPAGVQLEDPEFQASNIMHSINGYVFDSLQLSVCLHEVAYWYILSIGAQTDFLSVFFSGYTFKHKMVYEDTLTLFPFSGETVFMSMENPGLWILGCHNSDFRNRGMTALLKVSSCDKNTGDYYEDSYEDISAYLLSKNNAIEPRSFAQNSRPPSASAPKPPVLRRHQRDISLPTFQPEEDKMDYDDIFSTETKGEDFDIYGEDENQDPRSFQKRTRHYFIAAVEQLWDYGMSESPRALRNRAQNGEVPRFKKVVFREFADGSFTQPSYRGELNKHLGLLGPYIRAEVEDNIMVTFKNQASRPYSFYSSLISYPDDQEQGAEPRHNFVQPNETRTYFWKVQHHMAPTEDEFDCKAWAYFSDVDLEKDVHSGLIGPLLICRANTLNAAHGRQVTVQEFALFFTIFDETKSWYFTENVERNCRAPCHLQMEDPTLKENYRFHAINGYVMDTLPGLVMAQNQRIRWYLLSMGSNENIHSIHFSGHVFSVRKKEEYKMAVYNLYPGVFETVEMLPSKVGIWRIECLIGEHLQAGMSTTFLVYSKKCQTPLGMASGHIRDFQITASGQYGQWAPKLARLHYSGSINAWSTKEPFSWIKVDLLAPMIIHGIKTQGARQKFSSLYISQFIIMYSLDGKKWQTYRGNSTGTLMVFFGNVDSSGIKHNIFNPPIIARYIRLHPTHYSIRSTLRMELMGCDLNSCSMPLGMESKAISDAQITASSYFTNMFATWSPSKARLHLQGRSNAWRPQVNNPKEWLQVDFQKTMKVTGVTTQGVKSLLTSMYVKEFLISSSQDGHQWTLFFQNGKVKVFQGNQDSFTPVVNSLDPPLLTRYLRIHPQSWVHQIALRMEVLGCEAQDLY
# Biological target: T1, ET3i, a bioengineered human/porcine …
# Assay: cell-based or functional assay
binder,measurement,value
"Fab fragment of NB33, a recombinant immunoglobulin G derivative of KM33 (Fab, V domains shown) VH: EVQLVESGGGVVQPGRSLRLSCVDSGLTFSSYGMHWVRQAPGAGLEWVAVISYDGNDKYYADSVKGRFAISRDNAKNTLYLQMNSLTIEDTAVYYCAKDLIESNIAEAFWGQGTLVTVSS VL: DIQMTQSPSSLSASVGDTVTIACRASRDIRNDLAWYQQKPGKAPKLLIYATSRLQSGVPSRFSGSGSFTDFTLTINSLQPDDSATYYCLQDSDYPLTFGGGTKVDIK","neutralization of ET3i by NB33, factor X activation chromogenic assay (IC50)",3.64 nM
